Laboratory results from the supplement of paper PMC10567573.

B1: TMEM106C (parent)
chain: SEQLVNFTGKAEMGGPFSYVYFFC

Variants of: B1
Test: protein stability index of a GFP-peptide fusion (GPS, HEK-293T) (PSI 1-6); higher = more stable
Settings: c terminus: a fixed tail appended
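Further: lentivirally expressed fusions sorted by FACS into six bins by GFP to DsRed ratio, PSI derived from sequencing read proportions per bin multiplied by bin number.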

Protein stability index: each site, then its substitutions
G14: S 3.33 | C 3.15 | N 2.23 | I 3.83 | Q 2.52 | K 2.59 | M 2.79 | F 3.25 | A 3.63 | R 2.42 | V 3.73 | L 3 | E 2.86 | W 3.4 | Y 3.75 | H 2.88 | P 3.48 | T 3.09 | D 3.46
K10: W 3.18 | D 2.33 | T 3.48 | A 2.02 | N 2.25 | L 1.94 | S 3.56 | G 4.37 | E 2.94 | F 2.92 | R 2.99 | Q 3.07 | H 2.51 | V 3.02 | Y 2.5 | P 2.32 | I 3.15 | M 2.72 | C 2.55
A11: F 3.61 | L 2.92 | D 2.64 | N 2.66 | Y 2.47 | K 3.7 | C 2 | R 2.14 | V 3.08 | T 3.55 | M 2.61 | P 4.32 | E 3.33 | H 2.39 | I 2.16 | W 2.75 | S 2.17 | Q 3.25 | G 2.41
M13: T 2.27 | L 2.2 | R 2.54 | P 2.52 | C 2.52 | A 2.1 | F 2.15 | G 2.77 | W 2.15 | H 2.64 | N 2.69 | D 3.13 | E 1.54 | V 3.14 | I 3.54 | Q 2.02 | K 2.34 | S 2.16 | Y 3.13
V20: L 2.07 | G 2.35 | Q 2.65 | C 3.09 | H 2.53 | F 2.17 | T 2.77 | S 2.56 | R 1.68 | K 1.55 | E 2.13 | W 1.79 | A 2.9 | D 1.76 | I 2.7 | P 1.98 | N 2.69 | M 2.65 | Y 2.53
T8: E 2.29 | F 1.62 | H 3.31 | Q 3.6 | M 2.02 | K 2.4 | V 2.92 | N 2.63 | L 4.14 | G 2.76 | I 3.12 | P 2.54 | R 2.65 | C 3.08 | W 2.44 | A 3.06 | Y 3.78 | S 2.29
P16: K 2.98 | F 3.14 | I 2.04 | E 2.88 | R 3.05 | T 2.4 | V 2.47 | D 3.16 | N 3.26 | Q 2.58 | L 3.79 | A 2.25 | C 3.95 | S 2.1 | W 2.94 | M 3.03 | G 2.05 | Y 3.76 | H 2.25
E12: V 2.79 | D 2.46 | C 2.67 | P 3.12 | R 3.52 | G 2.96 | S 2.79 | Q 4.32 | H 3.66 | F 2.67 | N 2.69 | A 1.37 | T 2.51 | W 3.46 | K 4.11 | I 2.98 | L 2.07 | M 3.74 | Y 3.17
S18: P 2.26 | G 1.88 | L 3.3 | E 2.23 | M 4.17 | I 3.11 | N 3 | H 2.35 | W 1.72 | C 2.74 | Q 2.45 | F 3.04 | R 3.37 | V 4.08 | A 2.29 | T 2.31 | Y 2.04 | K 2.25
Y21: Q 2.15 | E 1.42 | H 2.26 | N 2.82 | M 3.64 | C 2.42 | V 3.6 | G 1.84 | A 3.06 | T 3.31 | L 3.93 | P 1.49 | R 1.49 | F 3.1 | D 1.89 | S 2.44 | K 2.06
F17: V 2.46 | M 3.54 | E 1.97 | G 2.28 | N 2.93 | R 3.07 | H 2.22 | T 2.41 | Y 2.21 | P 1.84 | D 1.95 | I 2.47 | L 3.08 | K 2.42 | A 2.55 | C 2.79 | S 2.5 | Q 2.77 | W 3.31
F22: T 3.71 | A 2.62 | W 2.21 | C 2.58 | G 2.86 | P 2.06 | E 1.88 | H 3.04 | D 2.33 | Y 2.78 | Q 2.07 | V 3.27 | I 1.96 | N 1.79 | R 2.28 | K 1.84 | S 2.12 | M 3.04
Y19: M 3.35 | E 1.93 | C 2.1 | V 3.9 | N 1.97 | G 2.97 | H 3.66 | L 2.89 | A 2 | Q 2.12 | R 2.1 | W 2.46 | I 2.51 | K 3.22 | D 1.91 | F 2.11 | P 1.74 | T 2.33
G15: K 2.63 | N 2.23 | Q 2.59 | S 2.85 | Y 2.89 | E 3.6 | H 3.96 | T 2.73 | A 2.8 | C 2.89 | I 3.9 | L 2.52 | P 4.29 | D 2.33 | M 3.83 | V 2.76 | F 3.12 | W 2.36 | R 2.79
C24: W 3.35 | D 2.36 | A 3.11 | N 1.89 | S 2.23 | R 2.09 | P 1.73 | Y 3.05 | M 2.82 | G 2.53 | Q 1.54 | I 3.26 | T 3.96 | K 2.07 | E 2.29 | H 3.25 | V 3.49 | F 3.13
F7: Q 1.74 | R 2.32 | Y 3.39 | W 2.51 | S 2.03 | T 3.16 | V 2.45 | P 3.16
G9: W 2.95 | T 3.27 | R 3.01 | H 3.07 | K 2.89 | D 2.19 | Y 3.05 | M 2.47 | I 2.8 | Q 2.71 | N 3.19 | A 3.2 | C 2.05 | L 2.21 | P 2.28 | V 3.09 | E 2.46 | S 2.97 | F 2.01
F23: I 2.42 | K 1.79 | T 2.05 | R 4.48 | H 2.28 | W 3.85 | A 2.45 | Q 2.9 | N 1.35 | L 2.08 | V 3.22 | E 2.15 | Y 3.3 | G 3.03 | D 1.56 | S 3.45 | C 2.54 | P 1.51
